Laboratory results reported in patent US20240199740A1 (Ablynx, published 2024).

Columns and labels:
human CD123 [1] = target: T1, human CD123 (human, UniProt P26951 19-378); test: cell-based or functional assay
human CD123 [2] = target: T1, human CD123; test: cell-based or functional assay; remark: listed apart in the source
[3] = target: T2, cynomolgus TCR/CD3 expressed on cells (cynomolgus); test: flow cytometry competition, HSC-F cells, competitor T017000099 (500 nM)
T2 construct: whole, on cells; Native complex with CD3 chains; the cell type is named under assay or readout; also called cyno TCR/CD3; CD3/TCR expressed on HSC-F

[4] = target: T3, human CD123 expressed on cells (human, UniProt P26951 19-378); test: cell-based or functional assay
[5] = target: T3, human CD123 expressed on cells; test: flow cytometry competition, MOLM-13 cells, competitor A0110056A10-Alexa647 (0.4 nM)
[6] = target: T3, human CD123 expressed on cells; test: cell-based or functional assay; remark: listed apart in the source
[7] = target: T2, cynomolgus TCR/CD3 expressed on cells; test: cell-based or functional assay
[8] = target: T4, cynomolgus CD123 expressed on HEK Flp-In cells (cynomolgus); test: flow cytometry competition, HEK Flp-In cyCD123 cells, competitor A0110056A10-Alexa647 (0.9 nM)
T4 construct: EHH61867.1; also called cyCD123; cyno CD123
T4 chain: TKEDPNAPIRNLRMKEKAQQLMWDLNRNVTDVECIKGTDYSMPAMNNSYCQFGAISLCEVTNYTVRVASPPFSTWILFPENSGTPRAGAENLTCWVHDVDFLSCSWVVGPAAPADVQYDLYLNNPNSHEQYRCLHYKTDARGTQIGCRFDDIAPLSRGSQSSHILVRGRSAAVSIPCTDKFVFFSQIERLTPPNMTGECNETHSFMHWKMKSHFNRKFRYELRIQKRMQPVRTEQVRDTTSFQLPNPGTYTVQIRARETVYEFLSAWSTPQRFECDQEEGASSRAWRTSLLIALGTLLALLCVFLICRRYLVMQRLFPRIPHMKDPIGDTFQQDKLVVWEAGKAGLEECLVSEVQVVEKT

[9] = target: T3, human CD123 expressed on cells; test: cell-based or functional assay; remark: listed apart in the source
[10] = target: T2, cynomolgus TCR/CD3 expressed on cells; test: cell-based or functional assay; remark: listed apart in the source
[11] = target: T3, human CD123 expressed on cells; test: flow cytometry competition, CHO Flp-In huCD123 cells, competitor A0110056A10-Alexa647 (0.9 nM)
[12] = target: T3, human CD123 expressed on cells; test: cell-based or functional assay; remark: listed apart in the source
[13] = target: T5, recombinant human CD123 protein (R&D Systems, 301-R3/CF) (human, UniProt P26951 19-305); test: SPR (ProteOn XPR36), CD123 immobilized
T5 construct: Bought recombinant His-tagged extracellular domain of human CD123; also called recombinant CD123; in house biotinylated-CD123 recombinant protein; not shown: His tag of the bought protein
T5 sequence: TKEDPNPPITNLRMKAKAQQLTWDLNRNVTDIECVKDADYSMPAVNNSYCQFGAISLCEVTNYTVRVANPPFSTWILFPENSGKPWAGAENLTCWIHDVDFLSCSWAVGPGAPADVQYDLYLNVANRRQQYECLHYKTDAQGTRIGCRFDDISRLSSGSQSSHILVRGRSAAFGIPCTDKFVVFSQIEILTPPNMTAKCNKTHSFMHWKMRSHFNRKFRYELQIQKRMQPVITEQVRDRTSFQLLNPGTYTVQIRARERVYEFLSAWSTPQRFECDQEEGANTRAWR

B1: T017000138 (bispecific antibody)
chain: DVQLVESGGGLVQPGGSLRLSCVASGDVHKINFLGWYRQAPGKEREKVAHISIGDQTDYADSAKGRFTISRDESKNMVYLQMNSLKPEDTAVYFCRAFSRIYPYDYWGQGTLVTVSSGGGGSGGGGSGGGGSGGGGSGGGGSGGGGSGGGGSEVQLVESGGGLVQAGGSLRLSCAASGITSKINDMGWYRQTPGNYREWVASITATGTTNYRDSVKGRFTISRDNAKSTVYLQMNSLKPEDTTVYYCNTFPPISNFWGQGTLVTVSSGGGGSGGGGSGGGGSGGGGSGGGGSGGGGSGGGGSEVQLVESGGGLVQAGGPLRLSCAASGRTFSSYVMGWFRQAPGKEREFVAAIYWSNGKTQYTDSVKGRFTISGDNAKNTVYLQMNSLNPEDTAVYYCVADKDETGFRTLPIAYDYWGQGTLVTVSSA
- % lysis, redirected cynomolgus T cell mediated killing of KG1a cells, flow cytometry, E:T 10:1 (human CD123 [1]): 21%
- % lysis, redirected human T cell mediated killing of KG1a cells, flow cytometry, E:T 10:1 (human CD123 [1]): 64%
- EC50 (M), redirected cynomolgus T cell mediated killing of KG1a cells, flow cytometry, E:T 10:1 (human CD123 [1]): 2.8e-11 M
- EC50 (M), redirected human T cell mediated killing of KG1a cells, flow cytometry, E:T 10:1 (human CD123 [1]): 1.6e-10 M
- EC50 (M), redirected cynomolgus T cell mediated killing of MOLM-13 cells, flow cytometry, E:T 10:1 (human CD123 [2]): 1.5e-10 M
- EC50 (M), redirected human T cell mediated killing of MOLM-13 cells, flow cytometry, E:T 10:1 (human CD123 [2]): 1.1e-10 M

B2: T017000138 (bispecific antibody)
chain: DVQLVESGGGLVQPGGSLRLSCVASGDVHKINFLGWYRQAPGKEREKVAHISIGDQTDYADSAKGRFTISRDESKNMVYLQMNSLKPEDTAVYFCRAFSRIYPYDYWGQGTLVTVSSGGGGSGGGGSGGGGSGGGGSGGGGSGGGGSGGGGSEVQLVESGGGLVQAGGSLRLSCAASGITSKINDMGWYRQTPGNYREWVASITATGTTNYRDSVKGRFTISRDNAKSTVYLQMNSLKPEDTTVYYCNTFPPISNFWGQGTLVTVSSGGGGSGGGGSGGGGSGGGGSGGGGSGGGGSGGGGSEVQLVESGGGLVQAGGPLRLSCAASGRTFSSYVMGWFRQAPGKEREFVAAIYWSNGKTQYTDSVKGRFTISGDNAKNTVYLQMNSLNPEDTAVYYCVADKDETGFRTLPIAYDYWGQGTLVTVSSA
notes: Multispecific Nanobody polypeptide expressed in Pichia
- IC50 [3]: 440 nM
- EC50 (M), human IL-6 secretion during human T cell mediated killing of CD123 transfected adherent target cells [4]: 3.8e-11 M
- IC50 [5]: 3.5 nM
- EC50 (M), IFN-γ secretion by cynomolgus T cells during killing of CD123 transfected adherent target cells [6]: 8.7e-10 M
- EC50 (M), IFN-γ secretion by human T cells during killing of CD123 transfected adherent target cells [6]: 4e-10 M
- % lysis, redirected cyno T cell mediated killing of MOLM-13 cells, flow cytometry, E:T 10:1 [7]: 47%
- EC50 (M), redirected cyno T cell mediated killing of MOLM-13 cells, flow cytometry, E:T 10:1 [7]: 1.7e-11 M
- IC50 [8]: 12 nM
- % lysis, redirected human T cell mediated killing of MOLM-13 cells, flow cytometry, E:T 10:1 [9]: 22%
- EC50 (M), redirected human T cell mediated killing of MOLM-13 cells, flow cytometry, E:T 10:1 [9]: 2.3e-11 M
- % lysis, redirected cyno T cell mediated killing of KG1a cells, flow cytometry [10]: 38%
- EC50 (M), redirected cyno T cell mediated killing of KG1a cells, flow cytometry [10]: 8.8e-11 M
- IC50 [11]: 3.6 nM
- % lysis, redirected human T cell mediated killing of KG1a cells, flow cytometry, E:T 10:1 [12]: 24%
- EC50 (M), redirected human T cell mediated killing of KG1a cells, flow cytometry, E:T 10:1 [12]: 2.8e-10 M

B3: T017000129 (bispecific antibody)
chain: DVQLVESGGGLVQPGGSLRLSCVASGDVHKINFLGWYRQAPGKEREKVAHISIGDQTDYADSAKGRFTISRDESKNMVYLQMNSLKPEDTAVYFCRAFSRIYPYDYWGQGTLVTVSSGGGGSGGGGSGGGGSGGGGSGGGGSGGGGSGGGGSEVQLVESGGGLVQAGDSLRLSCAASGRTFSSYAMGWFRQAPGKEREFVAAISWSDGSTYYADSVKGRFTISRDNAKNTVYLQMNSLKPEDTAVYYCAADLTSTNPGSYIYIWAYDYWGQGTLVTVSSA
notes: Control: anti-TCR Nanobody linked to the irrelevant anti-RSV Nanobody; also called irrelevant multivalent polypeptide T017000129
- IC50 [3]: 520 nM

B4: T017000116 (bispecific antibody)
chain: EVQLVESGGGLVQAGGSLRLSCAASGITSKINDMGWYRQTPGNYREWVASITATGTTNYRDSVKGRFTISRDNAKSTVYLQMNSLKPEDTTVYYCNTFPPISNFWGQGTLVTVSSGGGGSGGGGSGGGGSGGGGSGGGGSGGGGSGGGGSEVQLVESGGGLVQAGGPLRLSCAASGRTFSSYVMGWFRQAPGKEREFVAAIYWSNGKTQYTDSVKGRFTISGDNAKNTVYLQMNSLNPEDTAVYYCVADKDETGFRTLPIAYDYWGQGTLVTVSSGGGGSGGGGSGGGGSGGGGSGGGGSGGGGSGGGGSEVQLVESGGGLVQPGGSLRLSCVASGDVHKINFLGWYRQAPGKEREKVAHISIGDQTDYADSAKGRFTISRDESKNMVYLQMNSLKPEDTAVYFCRAFSRIYPYDYWGQGTLVTVSS
notes: Multispecific Nanobody polypeptide expressed in Pichia; also called A0110056A10-35GS-A0110055F03-35GS-T0170056G05-FLAG3-HIS6; not shown: C-terminal FLAG3-HIS6 tag
- Kd [13]: 0.88 nM
- EC50 (M), human IL-6 secretion during human T cell mediated killing of CD123 transfected adherent target cells [4]: 9.6e-09 M
- IC50 [5]: 1.8 nM
- EC50 (M), IFN-γ secretion by human T cells during killing of CD123 transfected adherent target cells [6]: 8.1e-09 M
- % lysis, redirected cyno T cell mediated killing of MOLM-13 cells, flow cytometry, E:T 10:1 [7]: 15%
- EC50 (M), redirected cyno T cell mediated killing of MOLM-13 cells, flow cytometry, E:T 10:1 [7]: 3.9e-10 M
- IC50 [8]: 5.6 nM
- % lysis, redirected human T cell mediated killing of MOLM-13 cells, flow cytometry, E:T 10:1 [9]: 17%
- EC50 (M), redirected human T cell mediated killing of MOLM-13 cells, flow cytometry, E:T 10:1 [9]: 2.2e-10 M
- % lysis, redirected cyno T cell mediated killing of KG1a cells, flow cytometry [10]: 14%
- EC50 (M), redirected cyno T cell mediated killing of KG1a cells, flow cytometry [10]: 3.7e-10 M
- IC50 [11]: 1.6 nM
- % lysis, redirected human T cell mediated killing of KG1a cells, flow cytometry, E:T 10:1 [12]: 5%
- EC50 (M), redirected human T cell mediated killing of KG1a cells, flow cytometry, E:T 10:1 [12]: 4.2e-10 M

B5: T017000128 (bispecific antibody)
chain: DVQLVESGGGLVQPGGSLRLSCVASGDVHKINFLGWYRQAPGKEREKVAHISIGDQTDYADSAKGRFTISRDESKNMVYLQMNSLKPEDTAVYFCRAFSRIYPYDYWGQGTLVTVSSGGGGSGGGGSGGGGSGGGGSGGGGSGGGGSGGGGSEVQLVESGGGLVQAGGSLRLSCAASGITSKINDMGWYRQTPGNYREWVASITATGTTNYRDSVKGRFTISRDNAKSTVYLQMNSLKPEDTTVYYCNTFPPISNFWGQGTLVTVSSA
notes: as for B2
- IC50 [3]: 630 nM
- EC50 (M), human IL-6 secretion during human T cell mediated killing of CD123 transfected adherent target cells [4]: 6.9e-11 M
- IC50 [5]: 3.1 nM
- EC50 (M), IFN-γ secretion by cynomolgus T cells during killing of CD123 transfected adherent target cells [6]: 1e-10 M
- EC50 (M), IFN-γ secretion by human T cells during killing of CD123 transfected adherent target cells [6]: 8.6e-11 M
- % lysis, redirected cyno T cell mediated killing of MOLM-13 cells, flow cytometry, E:T 10:1 [7]: 50%
- EC50 (M), redirected cyno T cell mediated killing of MOLM-13 cells, flow cytometry, E:T 10:1 [7]: 1.8e-10 M
- IC50 [8]: 31 nM
- % lysis, redirected human T cell mediated killing of MOLM-13 cells, flow cytometry, E:T 10:1 [9]: 20%
- EC50 (M), redirected human T cell mediated killing of MOLM-13 cells, flow cytometry, E:T 10:1 [9]: 1.5e-10 M
- % lysis, redirected cyno T cell mediated killing of KG1a cells, flow cytometry [10]: 38%
- EC50 (M), redirected cyno T cell mediated killing of KG1a cells, flow cytometry [10]: 3.2e-10 M
- IC50 [11]: 5.8 nM
- % lysis, redirected human T cell mediated killing of KG1a cells, flow cytometry, E:T 10:1 [12]: 28%
- EC50 (M), redirected human T cell mediated killing of KG1a cells, flow cytometry, E:T 10:1 [12]: 8.7e-10 M
